A short description of this series: self-splicing fitness, log relative to wild type (ln ratio); higher = more splicing; Tetrahymena group I intron in knt gene, E. coli kanamycin selection, DiMSum; sequences stand for … in CUCUCU…GGAGGGAAAAGUUAUCAGGCAUGCACCUGGUAGCUAGUCUUUAAACCAAUAGAUUGCAUCGGUUUAAAAGGCAAGACCGUCAAAUUGCGGGAAAGGGGUCAACAGCCGUUCAGUACCAAGUCUCAGGGGAAACUUUGAGAUGGCCUUGCAAAGGGUAUGGUAAUAAGCUGACGGACAUGGUCCUAACCACGCAGCCAAGUCCUAAGUCAACAGAUCUUCUGUUGAUAUGGAUGCAGUUCACAGACUAAAUGUCGGUCGGGGAAGAUGUAUUCUUCUCAUAAGAUAUAGUCGGACCUCUCCUUAAUGGGAGCUAGCGGAUGAAGUGAUGCAACACUGGAGCCGCUGGGAACUAAUUUGUAUGCGAAAGUAUAUUGAUUAGUUUUGGAGUACUCGUGGUCG
In short, it runs like this:
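DiMSum derived fitness as the error-weighted combination of fold changes across replicates, kanamycin versus no kanamycin, normalised to wild type. E. coli BL21(DE3) held the library, which randomised all eight P1ex-region intron nucleotides within the knt kanamycin-resistance gene on pET-22b(+). Six replicate transformations grew overnight at 37°C or 30°C on LB agar with or without 25 μg/mL kanamycin, also containing 100 μg/mL carbenicillin, 50 μM IPTG and 0.2% rhamnose, and pooled colonies were amplicon-sequenced on an Illumina HiSeq 2500.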

± gives the uncertainty stated by the source.

Regarding UCCGAGCAAUAUUACGCGAC, the “self-splicing fitness (ln)” value is -2.63 ± 0.41 (30 °C) and -1.58 ± 0.4 (37 °C). On the same counts, the results for GGCAAGCAAUAUUACGAUAU are -1.29 ± 0.073 and -0.406 ± 0.096. Turning to UGGGAGCAAUAUUACGUUAG, the “self-splicing fitness (ln)” value (30 °C) is -3.58 ± 0.32 and the “self-splicing fitness (ln)” value (37 °C) was -2.13 ± 0.23. As to GUUGAGCAAUAUUACGCUAA, the “self-splicing fitness (ln)” value (30 °C) was -2.15 ± 0.27 and the “self-splicing fitness (ln)” value (37 °C) was -2.26 ± 0.26. Take AGGAAGCAAUAUUACGCUCA: the “self-splicing fitness (ln)” value was -0.332 ± 0.13 (30 °C) and -0.339 ± 0.16 (37 °C). On to CGCAAGCAAUAUUACGAGCU, for which the “self-splicing fitness (ln)” value is -0.541 ± 0.063 (30 °C) and -0.633 ± 0.078 (37 °C).

Consider ACAAAGCAAUAUUACGUAUA, for which the “self-splicing fitness (ln)” value runs as follows: (30 °C) -2.79 ± 0.2; (37 °C) -2.09 ± 0.22.

Regarding AAUCAGCAAUAUUACGUAUA, the “self-splicing fitness (ln)” value (30 °C) is -0.574 ± 0.066 and the “self-splicing fitness (ln)” value (37 °C) is 0.0946 ± 0.087. For AAAAAGCAAUAUUACGUACC the same measures were -0.981 ± 0.13 and -0.0947 ± 0.14. For AACAAGCAAUAUUACGAACU the same measures were -0.328 ± 0.052 and 0.146 ± 0.084.

Take UUGGAGCAAUAUUACGGUCC: the “self-splicing fitness (ln)” value (30 °C) was -3.7 ± 0.34. CGUAAGCAAUAUUACGAUCG: the “self-splicing fitness (ln)” value (30 °C) is -1.03 ± 0.11 and the “self-splicing fitness (ln)” value (37 °C) is -0.0852 ± 0.13. Regarding GUCGAGCAAUAUUACGUCGG, the “self-splicing fitness (ln)” value (37 °C) is -2.34 ± 0.22. As for UAAAAGCAAUAUUACGCAGG, the “self-splicing fitness (ln)” value by setting is: (30 °C) -1.55 ± 0.12; (37 °C) -1.2 ± 0.11. As for CAUUAGCAAUAUUACGUACU, the “self-splicing fitness (ln)” value is -3.11 ± 0.18 (30 °C) and -1.8 ± 0.15 (37 °C). For GUUGAGCAAUAUUACGGUCC the same measures were -2.05 ± 0.15 and -1.3 ± 0.19. As for ACGAAGCAAUAUUACGUAUA, the “self-splicing fitness (ln)” value (30 °C) was -2.5 ± 0.12 and the “self-splicing fitness (ln)” value (37 °C) is -2.16 ± 0.12. In the case of UCCUAGCAAUAUUACGGAGC, the “self-splicing fitness (ln)” value is, setting by setting: (30 °C) -3.26 ± 0.29; (37 °C) -1.98 ± 0.18. On the same counts, the results for CGCGAGCAAUAUUACGACCU are -0.582 ± 0.16 and -1.81 ± 0.21.

With UGGUAGCAAUAUUACGGUUA, the “self-splicing fitness (ln)” value by setting is: (30 °C) -0.381 ± 0.12; (37 °C) 0.439 ± 0.15. CUGGAGCAAUAUUACGAGCA: the “self-splicing fitness (ln)” value is -2.32 ± 0.46 (30 °C) and -2.63 ± 0.42 (37 °C). On the same counts, the results for CAAGAGCAAUAUUACGUUGC are -3.28 ± 0.2 and -2.38 ± 0.23. For UGGAAGCAAUAUUACGGGAC the same measures were -2.63 ± 0.21 and -3.26 ± 0.32. On the same counts, the results for CCUAAGCAAUAUUACGUGAG are -1.2 ± 0.057 and -0.711 ± 0.076.

With CAUAAGCAAUAUUACGCGUA, the “self-splicing fitness (ln)” value is -1.76 ± 0.11 (30 °C) and -2.02 ± 0.16 (37 °C). For AUGGAGCAAUAUUACGUAGG the same measures were -3.11 ± 0.17 and -2.76 ± 0.23. Regarding GGGCAGCAAUAUUACGACUC, the “self-splicing fitness (ln)” value (30 °C) stood at 0.392 ± 0.12 and the “self-splicing fitness (ln)” value (37 °C) is 0.247 ± 0.17. For GACAAGCAAUAUUACGUGGG the same measures were -4.48 ± 0.2 and -1.87 ± 0.12. On the same counts, the results for AUCCAGCAAUAUUACGUGUG are -1.79 ± 0.057 and -0.983 ± 0.06. On to GAUUAGCAAUAUUACGCACU, for which the “self-splicing fitness (ln)” value by setting is: (30 °C) -0.846 ± 0.15; (37 °C) 0.415 ± 0.18. As for AGAGAGCAAUAUUACGUCGA, the “self-splicing fitness (ln)” value (30 °C) is -2 ± 0.32. Take AGCGAGCAAUAUUACGCCCA: the “self-splicing fitness (ln)” value is -2.07 ± 0.39 (30 °C) and -1.52 ± 0.34 (37 °C). On the same counts, the results for CAUGAGCAAUAUUACGGCUG are -0.641 ± 0.073 and -0.532 ± 0.12. On the same counts, the results for AUUCAGCAAUAUUACGUCCG are -0.866 ± 0.2 and -1.33 ± 0.24. On to CGAAAGCAAUAUUACGGUGU, for which the “self-splicing fitness (ln)” value is, setting by setting: (30 °C) -2.55 ± 0.088; (37 °C) -1.66 ± 0.11. For CGCAAGCAAUAUUACGAGUU, the “self-splicing fitness (ln)” value was -3.26 ± 0.13 (30 °C) and -1.45 ± 0.1 (37 °C).

For the sequence AUGAAGCAAUAUUACGGACA, the “self-splicing fitness (ln)” value is, setting by setting: (30 °C) -0.277 ± 0.077; (37 °C) 0.5 ± 0.11. On the same counts, the results for UCACAGCAAUAUUACGGUUA are -0.541 ± 0.072 and 0.291 ± 0.08. In the case of GAGUAGCAAUAUUACGACGU, the “self-splicing fitness (ln)” value (30 °C) was 0.156 ± 0.093 and the “self-splicing fitness (ln)” value (37 °C) stood at 0.524 ± 0.11. Take GAUGAGCAAUAUUACGGCCU: the “self-splicing fitness (ln)” value by setting is: (30 °C) -2.54 ± 0.18; (37 °C) -1.98 ± 0.23. On to ACCCAGCAAUAUUACGAGCU, for which the “self-splicing fitness (ln)” value (30 °C) was -4.29 ± 0.21 and the “self-splicing fitness (ln)” value (37 °C) was -2.17 ± 0.14. CGUAAGCAAUAUUACGUACU: the “self-splicing fitness (ln)” value runs as follows: (30 °C) -0.922 ± 0.098; (37 °C) -0.936 ± 0.11. AACUAGCAAUAUUACGAAGG: the “self-splicing fitness (ln)” value (30 °C) was -3.46 ± 0.2 and the “self-splicing fitness (ln)” value (37 °C) is -2.74 ± 0.26. On the same counts, the results for CCAAAGCAAUAUUACGCCCG are -0.324 ± 0.15 and 0.862 ± 0.18. In the case of GCGUAGCAAUAUUACGAUAC, the “self-splicing fitness (ln)” value by setting is: (30 °C) -1.95 ± 0.12; (37 °C) -0.893 ± 0.12.

As to GAGUAGCAAUAUUACGGCAA, the “self-splicing fitness (ln)” value (30 °C) was -1.84 ± 0.17 and the “self-splicing fitness (ln)” value (37 °C) is -0.547 ± 0.18.

In the case of AAAGAGCAAUAUUACGCUUA, the “self-splicing fitness (ln)” value is, setting by setting: (30 °C) -2.74 ± 0.31; (37 °C) -3.02 ± 0.23. For UCAAAGCAAUAUUACGAACG, the “self-splicing fitness (ln)” value is -0.696 ± 0.076 (30 °C) and -0.646 ± 0.11 (37 °C). UCUAAGCAAUAUUACGUCGA: the “self-splicing fitness (ln)” value was -0.33 ± 0.088 (30 °C) and 0.0723 ± 0.11 (37 °C). Consider ACCCAGCAAUAUUACGGUAG, for which the “self-splicing fitness (ln)” value (30 °C) is -3.82 ± 0.11 and the “self-splicing fitness (ln)” value (37 °C) is -2.97 ± 0.16. For CCUCAGCAAUAUUACGUUCG the same measures were -2.69 ± 0.077 and -0.795 ± 0.075. For GCAUAGCAAUAUUACGACAC the same measures were 0.147 ± 0.14 and -0.214 ± 0.19. For CAUUAGCAAUAUUACGGCAU, the “self-splicing fitness (ln)” value (30 °C) is -2.99 ± 0.21 and the “self-splicing fitness (ln)” value (37 °C) is -1.66 ± 0.17. On the same counts, the results for GUGCAGCAAUAUUACGAUAA are -2.55 ± 0.16 and -1.04 ± 0.13.

Turning to CCAUAGCAAUAUUACGUAUU, the “self-splicing fitness (ln)” value is, setting by setting: (30 °C) -3.88 ± 0.19; (37 °C) -2.64 ± 0.21. As to UAUAAGCAAUAUUACGGCGG, the “self-splicing fitness (ln)” value reads like this: (30 °C) 0.309 ± 0.2; (37 °C) -0.0854 ± 0.25. On the same counts, the results for UGAAAGCAAUAUUACGGCGA are -0.22 ± 0.1 and -0.0348 ± 0.099. For CGGAAGCAAUAUUACGAGGG, under “30 °C”, the “self-splicing fitness (ln)” value was -0.374 ± 0.41. As for CAAGAGCAAUAUUACGCAUA, the “self-splicing fitness (ln)” value (30 °C) is -2.71 ± 0.31 and the “self-splicing fitness (ln)” value (37 °C) was -2.3 ± 0.37. On the same counts, the results for CCCCAGCAAUAUUACGGAAC are -3.83 ± 0.26 and -3.1 ± 0.22. For the sequence CCCAAGCAAUAUUACGCAUC, for the setting “37 °C”, the “self-splicing fitness (ln)” value was -1.32 ± 0.21. For CCGGAGCAAUAUUACGAGAU, the “self-splicing fitness (ln)” value was -3.24 ± 0.18 (30 °C) and -3.52 ± 0.35 (37 °C). For UUAAAGCAAUAUUACGGCGC the same measures were -0.589 ± 0.11 and 0.34 ± 0.17. On the same counts, the results for AAAUAGCAAUAUUACGCCAA are -2.54 ± 0.18 and -1.86 ± 0.13. On the same counts, the results for AGACAGCAAUAUUACGAGGA are -3.17 ± 0.22 and -0.745 ± 0.17. Take AGCUAGCAAUAUUACGUAGG: the “self-splicing fitness (ln)” value (30 °C) was -3.29 ± 0.13 and the “self-splicing fitness (ln)” value (37 °C) is -1.27 ± 0.13. On the same counts, the results for CCACAGCAAUAUUACGGGAA are -3.4 ± 0.15 and -3.01 ± 0.2.

Consider AGUCAGCAAUAUUACGUGUC, for which the “self-splicing fitness (ln)” value (30 °C) was -2.18 ± 0.13 and the “self-splicing fitness (ln)” value (37 °C) is -2.11 ± 0.19. For CCAAAGCAAUAUUACGUACA the same measures were -3.73 ± 0.23 and -3.32 ± 0.28. GAUAAGCAAUAUUACGUGUU: the “self-splicing fitness (ln)” value (30 °C) was -2.67 ± 0.17 and the “self-splicing fitness (ln)” value (37 °C) is -2.18 ± 0.14. Regarding GUAUAGCAAUAUUACGCCCA, the “self-splicing fitness (ln)” value runs as follows: (30 °C) -1.33 ± 0.15; (37 °C) -0.76 ± 0.17.

AGCCAGCAAUAUUACGUCCG: the “self-splicing fitness (ln)” value is -3.12 ± 0.24 (30 °C) and -1.71 ± 0.29 (37 °C). As to AGCUAGCAAUAUUACGCAUC, where the note is “30 °C”, the “self-splicing fitness (ln)” value was -2.95 ± 0.36. For AUUAAGCAAUAUUACGGACA, the “self-splicing fitness (ln)” value (30 °C) is -0.398 ± 0.22 and the “self-splicing fitness (ln)” value (37 °C) is -0.339 ± 0.2. On the same counts, the results for AUAGAGCAAUAUUACGAAGC are -2.7 ± 0.28 and -0.819 ± 0.35.

On to CUGGAGCAAUAUUACGCCUC, for which, under “37 °C”, the “self-splicing fitness (ln)” value was -1.07 ± 0.47. Take ACGUAGCAAUAUUACGGAGA: the “self-splicing fitness (ln)” value reads like this: (30 °C) -3.36 ± 0.44; (37 °C) -2.08 ± 0.24.

These data come from the supplement of paper PMC7877785.
